Experimental data as given in patent US20240083958A1, “G PROTEIN PEPTIDOMIMETICS” (VRIJE UNIVERSITEIT BRUSSEL, priority 2020, published 2024).
Like-named read-outs stand apart in the source and are kept apart here. Bridge positions count the residues as written; N and C are the ends. Square brackets hold non-standard residues; d marks the D form. Primed or numbered codes have the meaning given here. Azk = residue with azidated side chain, clicked to Pra; Pra′ = residue with alkynyl side chain, clicked to Azk; Lys(N3) = [N-]=[N+]=NCCCC[C@H](N)C(=O)O; Cha = N[C@@H](CC1CCCCC1)C(=O)O; S5 = C=CCCC[C@](C)(N)C(=O)O; Pra = C#CC[C@H](N)C(=O)O

Legend:
Assay in all cases: cell-based or functional assay
human β2AR [1] = target: T1, human β2AR (human, UniProt P07550 2-365)
human β2AR [2] = target: T1, human β2AR; remark: listed apart in the source
human β2AR [3] = target: T1, human β2AR; remark: listed apart in the source
human β2AR [4] = target: T1, human β2AR; remark: listed apart in the source
human β2AR [5] = target: T1, human β2AR; remark: listed apart in the source
human β2AR [6] = target: T1, human β2AR; remark: listed apart in the source
human β2AR [7] = target: T1, human β2AR; remark: listed apart in the source
human β2AR [8] = target: T1, human β2AR; remark: listed apart in the source
human β2AR [9] = target: T1, human β2AR; remark: listed apart in the source
human β2AR [10] = target: T1, human β2AR; remark: listed apart in the source
human β2AR [11] = target: T1, human β2AR; remark: listed apart in the source

Ac-FNDCRDIIQRMHLRQYELA-OH [compound 79]
IC50 (nM) of isoproterenol, [3H]-DHA RLA, peptidomimetic present (human β2AR [1]): 849 nM | Shift (human β2AR [1]): 1 | Shift (averaged) (human β2AR [2]): 1

B1: compound 4 (peptide)
peptide: FNDCRDEIQRKHLRQYELL
HELM: PEPTIDE1{F.N.D.C.R.D.E.I.Q.R.K.H.L.R.Q.Y.E.L.L}$PEPTIDE1,PEPTIDE1,7:R3-11:R3$$$V2.0
SMILES: CC[C@H](C)[C@@H]1NC(=O)[C@@H](NC(=O)[C@H](CC(=O)O)NC(=O)[C@H](CCCNC(=N)N)NC(=O)[C@H](CS)NC(=O)[C@H](CC(=O)O)NC(=O)[C@H](CC(N)=O)NC(=O)[C@@H](N)Cc2ccccc2)CCC(=O)NCCCC[C@@H](C(=O)N[C@@H](Cc2c[nH]cn2)C(=O)N[C@@H](CC(C)C)C(=O)N[C@@H](CCCNC(=N)N)C(=O)N[C@@H](CCC(N)=O)C(=O)N[C@@H](Cc2ccc(O)cc2)C(=O)N[C@@H](CCC(=O)O)C(=O)N[C@@H](CC(C)C)C(=O)N[C@@H](CC(C)C)C(=O)O)NC(=O)[C@H](CCCNC(=N)N)NC(=O)[C@H](CCC(N)=O)NC1=O
IC50 (nM) of isoproterenol, [3H]-DHA RLA, peptidomimetic present (human β2AR [3]): 202 nM | Shift (human β2AR [3]): 4 | Shift (averaged) (human β2AR [4]): 4

B2: compound 26 (peptide)
peptide: Ac-FN[S5]CRD[S5]IQRMHLRQYELL-OH
modifications: staple 3-7
SMILES: CC[C@H](C)[C@H](NC(=O)[C@]1(C)CCCC=CCCC[C@](C)(NC(=O)[C@H](CC(N)=O)NC(=O)[C@H](Cc2ccccc2)NC(C)=O)C(=O)N[C@@H](CS)C(=O)N[C@@H](CCCNC(=N)N)C(=O)N[C@@H](CC(=O)O)C(=O)N1)C(=O)N[C@@H](CCC(N)=O)C(=O)N[C@@H](CCCNC(=N)N)C(=O)N[C@@H](CCSC)C(=O)N[C@@H](Cc1c[nH]cn1)C(=O)N[C@@H](CC(C)C)C(=O)N[C@@H](CCCNC(=N)N)C(=O)N[C@@H](CCC(N)=O)C(=O)N[C@@H](Cc1ccc(O)cc1)C(=O)N[C@@H](CCC(=O)O)C(=O)N[C@@H](CC(C)C)C(=O)N[C@@H](CC(C)C)C(=O)O
IC50 (nM) of isoproterenol, [3H]-DHA RLA, peptidomimetic present (human β2AR [5]): 305 nM | Shift (human β2AR [5]): 2 | Shift (averaged) (human β2AR [4]): 2

Ac-FN[S5]CRD[S5]IQRMHLRQYELL-OH (bridges not given here) [compound 25]
IC50 (nM) of isoproterenol, [3H]-DHA RLA, peptidomimetic present (human β2AR [5]): 485 nM | Shift (human β2AR [5]): 1 | Shift (averaged) (human β2AR [4]): 2

B3: compound 66 (peptide)
peptide: QRMHLRQYEXL
HELM: PEPTIDE1{[ac].Q.R.M.H.L.R.Q.Y.E.[Cha].L}$$$$V2.0
SMILES: CSCC[C@H](NC(=O)[C@H](CCCNC(=N)N)NC(=O)[C@H](CCC(N)=O)NC(C)=O)C(=O)N[C@@H](Cc1c[nH]cn1)C(=O)N[C@@H](CC(C)C)C(=O)N[C@@H](CCCNC(=N)N)C(=O)N[C@@H](CCC(N)=O)C(=O)N[C@@H](Cc1ccc(O)cc1)C(=O)N[C@@H](CCC(=O)O)C(=O)N[C@@H](CC1CCCCC1)C(=O)N[C@@H](CC(C)C)C(=O)O
IC50 (nM) of isoproterenol, [3H]-DHA RLA, peptidomimetic present (human β2AR [6]): 551 nM | Shift (human β2AR [6]): 1 | Shift (averaged) (human β2AR [2]): 2

B4: compound 84 (peptide)
peptide: FNDCRDIIQRMHLRQYELX
HELM: PEPTIDE1{[ac].F.N.D.C.R.D.I.I.Q.R.M.H.L.R.Q.Y.E.L.[Cha]}$$$$V2.0
SMILES: CC[C@H](C)[C@H](NC(=O)[C@H](CC(=O)O)NC(=O)[C@H](CCCNC(=N)N)NC(=O)[C@H](CS)NC(=O)[C@H](CC(=O)O)NC(=O)[C@H](CC(N)=O)NC(=O)[C@H](Cc1ccccc1)NC(C)=O)C(=O)N[C@H](C(=O)N[C@@H](CCC(N)=O)C(=O)N[C@@H](CCCNC(=N)N)C(=O)N[C@@H](CCSC)C(=O)N[C@@H](Cc1c[nH]cn1)C(=O)N[C@@H](CC(C)C)C(=O)N[C@@H](CCCNC(=N)N)C(=O)N[C@@H](CCC(N)=O)C(=O)N[C@@H](Cc1ccc(O)cc1)C(=O)N[C@@H](CCC(=O)O)C(=O)N[C@@H](CC(C)C)C(=O)N[C@@H](CC1CCCCC1)C(=O)O)[C@@H](C)CC
IC50 (nM) of isoproterenol, [3H]-DHA RLA, peptidomimetic present (human β2AR [7]): 66.2 nM | Shift (human β2AR [7]): 12 | Shift (averaged) (human β2AR [2]): 12

B5: compound 82 (peptide)
peptide: FNDCRDIIQRMHLRQXELL
HELM: PEPTIDE1{[ac].F.N.D.C.R.D.I.I.Q.R.M.H.L.R.Q.[Cha].E.L.L}$$$$V2.0
SMILES: CC[C@H](C)[C@H](NC(=O)[C@H](CC(=O)O)NC(=O)[C@H](CCCNC(=N)N)NC(=O)[C@H](CS)NC(=O)[C@H](CC(=O)O)NC(=O)[C@H](CC(N)=O)NC(=O)[C@H](Cc1ccccc1)NC(C)=O)C(=O)N[C@H](C(=O)N[C@@H](CCC(N)=O)C(=O)N[C@@H](CCCNC(=N)N)C(=O)N[C@@H](CCSC)C(=O)N[C@@H](Cc1c[nH]cn1)C(=O)N[C@@H](CC(C)C)C(=O)N[C@@H](CCCNC(=N)N)C(=O)N[C@@H](CCC(N)=O)C(=O)N[C@@H](CC1CCCCC1)C(=O)N[C@@H](CCC(=O)O)C(=O)N[C@@H](CC(C)C)C(=O)N[C@@H](CC(C)C)C(=O)O)[C@@H](C)CC
IC50 (nM) of isoproterenol, [3H]-DHA RLA, peptidomimetic present (human β2AR [7]): 25.6 nM | Shift (human β2AR [7]): 32 | Shift (averaged) (human β2AR [2]): 32

Ac-FNDCRDEIQRKHLRQYELL-OH [compound 3]
IC50 (nM) of isoproterenol, [3H]-DHA RLA, peptidomimetic present (human β2AR [3]): 408 nM | Shift (human β2AR [3]): 2 | Shift (averaged) (human β2AR [4]): 2

Ac-RRIFNDCRDIIQRMHLRQYELL-OH [compound 73]
IC50 (nM) of isoproterenol, [3H]-DHA RLA, peptidomimetic present (human β2AR [8]): 52.6 nM | Shift (human β2AR [8]): 19 | Shift (averaged) (human β2AR [2]): 19

Ac-FNDCRDEIQRKHLRQYELL-OH (lactam 7-11) [compound 5]
IC50 (nM) of isoproterenol, [3H]-DHA RLA, peptidomimetic present (human β2AR [3]): 197 nM | Shift (human β2AR [3]): 4 | Shift (averaged) (human β2AR [4]): 4

Ac-FNDCRD[S5]IQR[S5]HLRQYELL-OH (bridges not given here) [compound 6]
IC50 (nM) of isoproterenol, [3H]-DHA RLA, peptidomimetic present (human β2AR [9]): 104 nM | Shift (human β2AR [9]): 8 | Shift (averaged) (human β2AR [4]): 9

B6: compound 67 (peptide)
peptide: RDIIQRMHLRQYEXL
HELM: PEPTIDE1{[ac].R.D.I.I.Q.R.M.H.L.R.Q.Y.E.[Cha].L}$$$$V2.0
SMILES: CC[C@H](C)[C@H](NC(=O)[C@H](CC(=O)O)NC(=O)[C@H](CCCNC(=N)N)NC(C)=O)C(=O)N[C@H](C(=O)N[C@@H](CCC(N)=O)C(=O)N[C@@H](CCCNC(=N)N)C(=O)N[C@@H](CCSC)C(=O)N[C@@H](Cc1c[nH]cn1)C(=O)N[C@@H](CC(C)C)C(=O)N[C@@H](CCCNC(=N)N)C(=O)N[C@@H](CCC(N)=O)C(=O)N[C@@H](Cc1ccc(O)cc1)C(=O)N[C@@H](CCC(=O)O)C(=O)N[C@@H](CC1CCCCC1)C(=O)N[C@@H](CC(C)C)C(=O)O)[C@@H](C)CC
IC50 (nM) of isoproterenol, [3H]-DHA RLA, peptidomimetic present (human β2AR [6]): 45.4 nM | Shift (human β2AR [6]): 17 | Shift (averaged) (human β2AR [2]): 30

Ac-NARRIFNDCRDIIQRMHLRQYELL-OH [compound 72]
IC50 (nM) of isoproterenol, [3H]-DHA RLA, peptidomimetic present (human β2AR [8]): 22.2 nM | Shift (human β2AR [8]): 46 | Shift (averaged) (human β2AR [2]): 47

Ac-KFN[Pra′]CRD[Azk]IQRMHLRQYE[Cha]L-OH (triazole 4-8) [compound 50]
Fraction HI (%) (human β2AR [10]): 86% | IC50 (nM) of isoproterenol, [3H]-DHA RLA, peptidomimetic present (human β2AR [10]): 2.6 nM | Shift (human β2AR [10]): 616 | Shift (averaged) (human β2AR [2]): 373

Ac-KFN[Pra′]CRD[Azk]IQRMHLRQYELL-OH (triazole 4-8) [compound 41]
IC50 (nM) of isoproterenol, [3H]-DHA RLA, peptidomimetic present (human β2AR [11]): 26 nM | Shift (human β2AR [11]): 44 | Shift (averaged) (human β2AR [2]): 51

B7: compound 24 (peptide)
peptide: FNECRDKIQRMHLRQYELL
HELM: PEPTIDE1{[ac].F.N.E.C.R.D.K.I.Q.R.M.H.L.R.Q.Y.E.L.L}$PEPTIDE1,PEPTIDE1,4:R3-8:R3$$$V2.0
SMILES: CC[C@H](C)[C@H](NC(=O)[C@@H]1CCCCNC(=O)CC[C@H](NC(=O)[C@H](CC(N)=O)NC(=O)[C@H](Cc2ccccc2)NC(C)=O)C(=O)N[C@@H](CS)C(=O)N[C@@H](CCCNC(=N)N)C(=O)N[C@@H](CC(=O)O)C(=O)N1)C(=O)N[C@@H](CCC(N)=O)C(=O)N[C@@H](CCCNC(=N)N)C(=O)N[C@@H](CCSC)C(=O)N[C@@H](Cc1c[nH]cn1)C(=O)N[C@@H](CC(C)C)C(=O)N[C@@H](CCCNC(=N)N)C(=O)N[C@@H](CCC(N)=O)C(=O)N[C@@H](Cc1ccc(O)cc1)C(=O)N[C@@H](CCC(=O)O)C(=O)N[C@@H](CC(C)C)C(=O)N[C@@H](CC(C)C)C(=O)O
IC50 (nM) of isoproterenol, [3H]-DHA RLA, peptidomimetic present (human β2AR [5]): 97.3 nM | Shift (human β2AR [5]): 7 | Shift (averaged) (human β2AR [4]): 7

Ac-RFN[Pra′]CRD[Azk]IQRMHLRQYELL-OH (triazole 4-8) [compound 40]
IC50 (nM) of isoproterenol, [3H]-DHA RLA, peptidomimetic present (human β2AR [11]): 31.3 nM | Shift (human β2AR [11]): 37 | Shift (averaged) (human β2AR [2]): 37

Ac-KKFN[Pra]CRD[Lys(N3)]IQRMHLRQYE[Cha]L-OH (triazole 5-9) [compound 74]
Fraction HI (%) (human β2AR [10]): 89% | IC50 (nM) of isoproterenol, [3H]-DHA RLA, peptidomimetic present (human β2AR [10]): 4.7 nM | Shift (human β2AR [10]): 350 | Shift (averaged) (human β2AR [2]): 350

Ac-FNECRDKIQRMHLRQYELL-OH [compound 23]
IC50 (nM) of isoproterenol, [3H]-DHA RLA, peptidomimetic present (human β2AR [5]): 270 nM | Shift (averaged) (human β2AR [4]): 3
